The values that follow come from publication PMC10927535.

Usually Kd stands for the equilibrium constant for the complex coming apart. Read a high Kd as weaker binding.

The target of series [1] is T1, LSH3-DBD S45-S190 (Arabidopsis thaliana, UniProt O82268 45-190).
T1 sequence: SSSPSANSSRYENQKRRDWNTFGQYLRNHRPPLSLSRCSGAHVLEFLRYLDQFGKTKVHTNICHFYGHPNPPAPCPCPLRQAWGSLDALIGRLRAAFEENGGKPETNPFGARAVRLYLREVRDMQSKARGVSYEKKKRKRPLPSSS
Briefly: EMSA.

A further series has as its target T2, LSH1-DBD M1-L166 (Arabidopsis thaliana, UniProt Q6NNI3 1-166).
T2 sequence: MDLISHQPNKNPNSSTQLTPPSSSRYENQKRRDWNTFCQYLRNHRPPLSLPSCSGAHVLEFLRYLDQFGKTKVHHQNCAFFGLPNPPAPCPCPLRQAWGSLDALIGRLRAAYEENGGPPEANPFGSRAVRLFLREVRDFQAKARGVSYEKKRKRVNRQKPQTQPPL
Briefly: EMSA. In general terms: A gel shift assay detects complexes by their altered migration in electrophoresis.

Series [2] concerns the target T1, LSH3-DBD S45-S190. Briefly: crystal structure.

B1: WT ALOG motif probe (perfect motif) (dsDNA)
DNA 1: GCGTAGTTTACTGTTGACGTAG
DNA 2: CTACGTCAACAGTAAACTACG
In the case of B1, the Kd with LSH3-DBD S45-S190 [1] was 28 nM; with LSH1-DBD M1-L166, below 50 nM.

B2: LSH perfect motif 17 bp (oPR799/oPR800) (dsDNA)
DNA 1: TAGTTTACTGTTGACGT
DNA 2: ACGTCAACAGTAAACTA
B2: in the series with LSH3-DBD S45-S190 [2], the binding result is “binds”.
